± gives the standard deviation of the averaged measurements.

The data set relates to Saccharomyces cerevisiae. The experiment in a line: protein stability index of tFT-peptide fusion (C-terminal peptide) (PSI (0-1 scale)); higher = more stable (slower turnover). The settings on record: temperature: 30 C. On the procedure:
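MPS profiling in S. cerevisiae of the yeast C-terminome library: the last 12 aa of each annotated ORF are fused to the C-terminus of a sfGFP-mCherry timer, after a GGGS linker. Cells are FACS-sorted into 8 mCherry/sfGFP bins and deep-sequenced. PSI runs from 0 (unstable) to 1 (stable); wild type and das1Δ backgrounds, two technical replicates each.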

Setting [1] is: genetic background: das1 deletion.

Turning to KGGLEGWVKSQL [LYS4 C-terminal 12 aa], the protein stability index reads like this: under setting [1], 0.808 ± 0.018; (genetic background: wild type) 0.811 ± 0.074.
Regarding KGRALENLPDES [SSM4 C-terminal 12 aa], the protein stability index runs as follows: under setting [1], 0.675 ± 0.016; (genetic background: wild type) 0.692 ± 0.032.
Taken in the same sequence, the figures for KICEVAARQKWI [AAN1 C-terminal 12 aa] were 0.6888 ± 0.0048 and 0.627 ± 0.02.
Taken in the same sequence, the figures for KIEVSSQESWGN [HSP26 C-terminal 12 aa] were 0.68 ± 0.0024 and 0.693 ± 0.037.
The corresponding values for KINYDAIDGLFR [BRF1 C-terminal 12 aa] are 0.71 ± 0.013 and 0.681 ± 0.014.
Regarding KKGLLHKLKKKL [IST2 C-terminal 12 aa], the protein stability index is, setting by setting: under setting [1], 0.7257 ± 0.0041; (genetic background: wild type) 0.668 ± 0.045.
The corresponding values for KKGRQERKLANR [PPZ2 C-terminal 12 aa] are 0.689 ± 0.026 and 0.683 ± 0.029.
The corresponding values for KKKANIPKAKSA [HUT1 C-terminal 12 aa] are 0.706 ± 0.0094 and 0.686 ± 0.013.
The corresponding values for KKKFSFFGKRKK [PAM1 C-terminal 12 aa] are 0.684 ± 0.017 and 0.704 ± 0.048.
On to KKKFYKQYHFDL [PDR8 C-terminal 12 aa], for which the protein stability index by setting is: under setting [1], 0.715 ± 0.016; (genetic background: wild type) 0.727 ± 0.035.
Turning to KKKNKNKGKKKR [SRP21 C-terminal 12 aa], the protein stability index by setting is: under setting [1], 0.6857 ± 0.006; (genetic background: wild type) 0.719 ± 0.048.
Taken in the same sequence, the figures for KKKSRMFSFRKS [UBP13 C-terminal 12 aa] were 0.702 ± 0.011 and 0.709 ± 0.048.
The corresponding values for KKNDTPKPKPLK [SFC1 C-terminal 12 aa] are 0.7063 ± 0.00074 and 0.678 ± 0.01.
On to KKNRSGLRHSES [SQS1 C-terminal 12 aa], for which the protein stability index reads like this: under setting [1], 0.683 ± 0.011; (genetic background: wild type) 0.6606 ± 0.0038.
In the case of KKPFDKKPKFNI [YKU70 C-terminal 12 aa], the protein stability index runs as follows: under setting [1], 0.727 ± 0.024; (genetic background: wild type) 0.686 ± 0.017.
Taken in the same sequence, the figures for KLCTGIVWAPRV [YAR070C C-terminal 12 aa] were 0.681 ± 0.0084 and 0.7035 ± 0.0022.
Taken in the same sequence, the figures for KLDIPVSFLLAA [YBL053W C-terminal 12 aa] were 0.443 ± 0.0065 and 0.467 ± 0.044.
Taken in the same sequence, the figures for KLKFLQNTYNND [CCE1 C-terminal 12 aa] were 0.674 ± 0.015 and 0.635 ± 0.0079.
With KLLGIFPNLSNF [YLL054C C-terminal 12 aa], the protein stability index is, setting by setting: under setting [1], 0.70477 ± 0.00046; (genetic background: wild type) 0.358 ± 0.0064.
Taken in the same sequence, the figures for KLYNYLLSIEVY [YLR123C C-terminal 12 aa] were 0.144 ± 0.013 and 0.191 ± 0.0098.
The corresponding values for KMDKRAKNSDSA [RPL8A C-terminal 12 aa] are 0.691 ± 0.0034 and 0.6886 ± 0.0018.
The corresponding values for KMLDALKNERKK [HTL1 C-terminal 12 aa] are 0.716 ± 0.015 and 0.673 ± 0.038.
As for KMPLVPTHYYKQ [GCV1 C-terminal 12 aa], the protein stability index is, setting by setting: under setting [1], 0.706 ± 0.0089; (genetic background: wild type) 0.6559 ± 0.00066.
As to KNEQDEDKWDDF [GCS1 C-terminal 12 aa], the protein stability index runs as follows: under setting [1], 0.729 ± 0.031; (genetic background: wild type) 0.672 ± 0.014.
As for KNIKRDLRNVRI [TAX4 C-terminal 12 aa], the protein stability index is, setting by setting: under setting [1], 0.7 ± 0.045; (genetic background: wild type) 0.6514 ± 0.0059.
Taken in the same sequence, the figures for KNRYLHLLEQHK [BET4 C-terminal 12 aa] were 0.692 ± 0.018 and 0.67 ± 0.04.
For the sequence KPLLTSIFPNHK [YBL012C C-terminal 12 aa], the protein stability index came to 0.718 ± 0.064 under setting [1] and 0.667 ± 0.0098 (genetic background: wild type).
The corresponding values for KPLYYRIYRFFC [MMP1 C-terminal 12 aa] are 0.764 ± 0.013 and 0.537 ± 0.0091.

Values taken from the supplement of paper PMC10724198.
